Data published in patent US20160333092A1 (ORDER MADE MEDICAL RESEARCH, published 2016).

T1: human SLC6A6 (solute carrier family 6 (neurotransmitter transporter, taurine), member 6) (human, UniProt P31641 1-620)
T1 construct: also called native SLC6A6; SLC6A6 on the cell membrane
T1 sequence: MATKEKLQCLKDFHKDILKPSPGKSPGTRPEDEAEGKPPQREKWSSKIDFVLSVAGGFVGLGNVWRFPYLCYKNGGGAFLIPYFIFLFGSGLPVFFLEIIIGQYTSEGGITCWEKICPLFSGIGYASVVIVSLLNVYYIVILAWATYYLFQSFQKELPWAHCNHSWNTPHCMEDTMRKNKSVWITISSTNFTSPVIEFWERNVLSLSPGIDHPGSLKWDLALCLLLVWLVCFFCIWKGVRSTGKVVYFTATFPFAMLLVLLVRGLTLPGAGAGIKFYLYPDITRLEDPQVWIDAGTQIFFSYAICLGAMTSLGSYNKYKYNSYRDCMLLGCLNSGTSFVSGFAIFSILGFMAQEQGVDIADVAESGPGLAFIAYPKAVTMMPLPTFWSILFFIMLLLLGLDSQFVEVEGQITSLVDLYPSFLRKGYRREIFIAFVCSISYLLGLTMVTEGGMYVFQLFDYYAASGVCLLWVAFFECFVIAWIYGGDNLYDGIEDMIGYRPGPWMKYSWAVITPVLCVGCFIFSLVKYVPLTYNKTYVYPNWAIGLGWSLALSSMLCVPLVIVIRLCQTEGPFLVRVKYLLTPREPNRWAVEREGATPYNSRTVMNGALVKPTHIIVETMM

T2: partial protein of the extracellular region of SLC6A6 (amino acid residues 143 to 216, E. coli recombinant) (human, UniProt P31641 143-216)
T2 construct: also called SLC6A6 partial protein; recombinant protein
T2 sequence: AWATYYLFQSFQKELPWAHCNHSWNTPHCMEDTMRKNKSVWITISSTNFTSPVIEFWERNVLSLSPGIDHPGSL


Tests used:
[1] = target: T1, human SLC6A6 (solute carrier family 6 …); experiment: binding activity on HCT15 and HT-29 cells, antibody 10 ug/mL, anti-human IgG-HRP secondary antibody
Experimental: In this case, the antibody concentration was set to 10 μg/mL.

[2] = target: T1, human SLC6A6 (solute carrier family 6 …); experiment: immunocytological staining of formalin-fixed HT-29 and LoVo cells, antibody 10 ug/mL; compared with 4B9b and 5H12d
Experimental: (§1) Moreover, as controls for comparison purposes, the anti-SLC6A6 antibodies “4B9b” and “5H12d” disclosed in WO2012/029990 were also analyzed in the same manner. Hereinafter, antibodies produced by hybridoma cells are also represented by their respective clone numbers.
(§2) HT-29 and LoVo cells were cultured to reach 80% confluency and then seeded onto cover slips coated with Cellmatrix Type I-A (Nitta Gelatin Inc., Japan). After culture for 2 days, the cells were fixed with 10% neutral buffered formalin (WAKO). After being treated with 0.3% (v/v) aqueous hydrogen peroxide for 20 minutes, the cover slips were washed three times with TBST and treated with TBST containing 5% (w/v) skimmed milk, followed by addition of the antibodies purified in (7) above at a concentration of 10 μg/mL and reaction at 4° C. for 16 hours. […] After washing three times with TBST, the cover slips were sealed with Mounting Medium (Vector Shield).

[3] = target: T2, partial protein of the extracellular …; experiment: ELISA on coated recombinant SLC6A6 partial protein (residues 143-216), HRP-labelled secondary antibody
Experimental: The recombinant protein obtained in (4) above (10 μg/ml) was dispensed in 100 μL volumes into MaxiSorp 96-well plates (Nunc) and adsorbed onto the plates at room temperature for 1 hour. After adsorption, each well was washed with TBS-T (TBS-T (25 mM Tris, 150 mM NaCl, 0.05% (v/v) Tween 20, pH 7.4) and charged with skimmed milk (GIBCO), which had been diluted to 5% with TBS-T, to conduct blocking for 30 minutes at room temperature. After each well was washed three times with 200 μL of TBS-T, mouse plasma samples collected from the tail vein were each diluted 1/2000-fold with TBS-T and added to the ELISA plates in a volume of 100 μL per well, followed by reaction at room temperature for 1 hour. Each well was washed three times with 200 μL of TBS-T.
The thus obtained monoclonal antibody-producing hybridoma cells were cultured in ten 10 cm dishes to reach 90% confluency and then cultured for 10 days in a 1:1 mixture of HT medium (Invitrogen) and EX CELL Sp2/0 (Nichirei Bioscience Inc., Japan). The culture supernatants were collected and purified with a Protein G column. The Protein G column (GE Healthcare) was used in a volume of 0.5 mL relative to 100 mL of the culture supernatant. The cultured solutions were each passed at a flow rate of 1 to 3 ml/min through the Protein G column which had been equilibrated with PBS(−), followed by washing with 6 mL of washing buffer (25 mM Tris-HCl (pH 7.4), 140 mM NaCl, 10 mM KCl). Then, antibody proteins were eluted with 1 mL of elution buffer (0.1 M glycine-HCl (pH 2.5) or 0.1 M glycine-HCl (pH 3.0)) and neutralized with 0.5 M Tris-HCl (pH 7.4) to be within pH 7.0 to 7.4. The antibodies were concentrated with Amicon Ultra 30 (Millipore) and the buffer was replaced with PBS(−).

[4] = target: T1, human SLC6A6 (solute carrier family 6 …); experiment: immunocytological staining of formalin-fixed HT-29 and LoVo cells, antibody 10 ug/mL
Experimental: as §1, §2

binding result [1] | binding result [2] | binding result [3] | binding result [4] | Binder
binds | – | – | – | human-mouse chimeric 205 antibody (antibody, human IgG1, kappa, V domains shown, Human IgG1 / human kappa constant regions) VH: QVKLQQSGPELVKPGASVKMSCKASGYTFTSYVMHWVKQKPGQGLEWIGYINPYNDGTKYNEKFKGKATLTSDKSSSTAYMELSSLTSEDSAVYYCARRKAWFAYWGQGTLVTVSA VL: DIQMTQSPASQSASLGESVTITCLASQTIGTWLAWYQQKPGKSPQLLIYAATSLADGVPSRFSGSGSGTKFSFKISSLQAEDFVSYYCQQLYSTPLTFGGGTKLEIKR
– | binds | binds | – | monoclonal antibody produced from mouse-mouse hybridoma 205 (antibody, V domains shown) VH: VKLQQSGPELVKPGASVKMSCKASGYTFTSYVMHWVKQKPGQGLEWIGYINPYNDGTKYNEKFKGKATLTSDKSSSTAYMELSSLTSEDSAVYYCARRKAWFAYWGQGTLVTVSA VL: DIQMTQSPASQSASLGESVTITCLASQTIGTWLAWYQQKPGKSPQLLIYAATSLADGVPSRFSGSGSGTKFSFKISSLQAEDFVSYYCQQLYSTPLTFGGGTKLEIK
– | binds | binds | – | monoclonal antibody produced from mouse-mouse hybridoma 303 (antibody, V domains shown) VH: VQLQQPGAEFVKPGTSVKLSCKASGYNFTRYWINWVKLRPGQGLEWIGNIYPATNGINYNEKFKSKATLTVDTFSSTAYMQLSSLASEDSGLYYCARCKTMLSRCAWFPYWGQGTLVTVSA VL: DIQMTQTTSSLSASLGDRVTINCRASQDISNYLNWYQQKPDGTVKLLIYDTSRLHSRVPSRFSGSGSGTDYSLTISNLEQEDIATYFCQQGNMLPWTFGGGTKLEIK
– | – | binds | binds | monoclonal antibody produced from mouse-mouse hybridoma 422 (antibody, V domains shown, also called 422 antibody; antibody clone 422) VH: VQLQQSGPEVVKPGPSLRMSCKASGYFFTGNSMNWVKKTHGRSLEWIGLIDLSNGETRFNQKFKGKATLTVDKSSGTAYMELLNLTSEDSAVYYCASRSAMIMPCFSHWGQGTLVTVSA VL: DIVMTQSHNFMSTSIGDRVNITCKASQDVATAVAWFQQKPGQSPKLLIYWTSTRHTGVPDRFTGSGYGTDFTLTISHVQSEDLADYFCQQYDTYPYTFGGGTKLEIK
– | binds | binds | – | monoclonal antibody produced from mouse-mouse hybridoma 419 (antibody, V domains shown) VH: IQLQQSGPELVKPGASVKVSCKAFGYAFTRHNMYWVKQRHGKCLEWIGYIDPFNGGTSYNQKFKGKATLTVDKSSSTAYMHLNSLTSEDSAVYYCARVYGNYAWFAYWGQGTLVTVSA VL: DIVMTQSHKFMSTSVGDRVSITCKASQDVSTAVAWYQQIPGQSPKLLIYSSSYRYTGVPDRFTGSGSGTDFTFTISSVQAEDLAVYYCQQHYNTPWTFGGGTKLEIK
